Measured values: doi:10.1101/2025.04.13.648610, “Catalytic Mechanism and Differential Alarmone Regulation of a Conserved Stringent Nucleosidase” (bioRxiv, 2025)

What was measured:
[1] = target: the molecule itself; assay: crystal structure; wt PpnN co-crystallised with pppGpp (3:4 PpnN; pppGpp on three of four subunits; R5P and guanine in the active sites); 6-8 mg/ml PpnN, 1-2 mM ligand
[2] = target: the molecule itself; assay: SEC; Superdex 200 10/300 GL in 50 mM Tris-HCl pH 7.5, 200 mM NaCl, 5% glycerol, 5 mM BME; elution profiles of variants compared with wt PpnN
[3] = target: the molecule itself; assay: crystal structure; PpnN E264A co-crystallised with pppGpp and 2 mM GMP (E264A 4:4 PpnN; four pppGpp and four R5P bound); 6-8 mg/ml PpnN; 3.5 Å

Protein | stoichiometry N [2] | also measured
PpnN (wild type), nucleosidase of Escherichia coli (enzyme, UniProt P0ADR8 1-454, looked up, PpnN (previously YgdH), nucleosidase, Escherichia coli; PAG1 domain 1-150, catalytic domain 151-329, PAG2 domain 330-454; also called wt PpnN; PpnNwt; source: E. coli BL21 (DE3) ΔppnN (ppnN::kan), purified (Ni-NTA, Superdex 200 for biochemistry; HisTrap, SourceQ, Superdex 200 Increase for crystallisation); not shown: His6, N-terminal, kept) MITHISPLGSMDMLSQLEVDMLKRTASSDLYQLFRNCSLAVLNSGSLTDNSKELLSRFENFDINVLRRERGVKLELINPPEEAFVDGRIIRALQANLFAVLRDILFVYGQIHNTVRFPNLNLDNSVHITNLVFSILRNARALHVGEAPNMVVCWGGHSINENEYLYARRVGNQLGLRELNICTGCGPGAMEAPMKGAAVGHAQQRYKDSRFIGMTEPSIIAAEPPNPLVNELIIMPDIEKRLEAFVRIAHGIIIFPGGVGTAEELLYLLGILMNPANKDQVLPLILTGPKESADYFRVLDEFVVHTLGENARRHYRIIIDDAAEVARQMKKSMPLVKENRRDTGDAYSFNWSMRIAPDLQMPFEPSHENMANLKLYPDQPVEVLAADLRRAFSGIVAGNVKEVGIRAIEEFGPYKINGDKEIMRRMDDLLQGFVAQHRMKLPGSAYIPCYEICT |  | stoichiometry N [1]: 4
PpnN E263A (enzyme, Escherichia coli, UniProt P0ADR8 1-454, looked up, PpnN (previously YgdH), nucleosidase, Escherichia coli, with E263A; Made by quick-change mutagenesis on pCA24N-ppnN (wt); also called E263A variant; source: E. coli BL21 (DE3) ΔppnN, purified (Ni-NTA, Superdex 200)) MITHISPLGSMDMLSQLEVDMLKRTASSDLYQLFRNCSLAVLNSGSLTDNSKELLSRFENFDINVLRRERGVKLELINPPEEAFVDGRIIRALQANLFAVLRDILFVYGQIHNTVRFPNLNLDNSVHITNLVFSILRNARALHVGEAPNMVVCWGGHSINENEYLYARRVGNQLGLRELNICTGCGPGAMEAPMKGAAVGHAQQRYKDSRFIGMTEPSIIAAEPPNPLVNELIIMPDIEKRLEAFVRIAHGIIIFPGGVGTAAELLYLLGILMNPANKDQVLPLILTGPKESADYFRVLDEFVVHTLGENARRHYRIIIDDAAEVARQMKKSMPLVKENRRDTGDAYSFNWSMRIAPDLQMPFEPSHENMANLKLYPDQPVEVLAADLRRAFSGIVAGNVKEVGIRAIEEFGPYKINGDKEIMRRMDDLLQGFVAQHRMKLPGSAYIPCYEICT | 4 | 
PpnN E223A (enzyme, Escherichia coli, UniProt P0ADR8 1-454, looked up, PpnN (previously YgdH), nucleosidase, Escherichia coli, with E223A; Made by quick-change mutagenesis on pCA24N-ppnN (wt); also called E223A variant; source: E. coli BL21 (DE3) ΔppnN, purified (Ni-NTA, Superdex 200)) MITHISPLGSMDMLSQLEVDMLKRTASSDLYQLFRNCSLAVLNSGSLTDNSKELLSRFENFDINVLRRERGVKLELINPPEEAFVDGRIIRALQANLFAVLRDILFVYGQIHNTVRFPNLNLDNSVHITNLVFSILRNARALHVGEAPNMVVCWGGHSINENEYLYARRVGNQLGLRELNICTGCGPGAMEAPMKGAAVGHAQQRYKDSRFIGMTEPSIIAAAPPNPLVNELIIMPDIEKRLEAFVRIAHGIIIFPGGVGTAEELLYLLGILMNPANKDQVLPLILTGPKESADYFRVLDEFVVHTLGENARRHYRIIIDDAAEVARQMKKSMPLVKENRRDTGDAYSFNWSMRIAPDLQMPFEPSHENMANLKLYPDQPVEVLAADLRRAFSGIVAGNVKEVGIRAIEEFGPYKINGDKEIMRRMDDLLQGFVAQHRMKLPGSAYIPCYEICT | 4 | 
PpnN K195A (enzyme, Escherichia coli, UniProt P0ADR8 1-454, looked up, PpnN (previously YgdH), nucleosidase, Escherichia coli, with K195A; Made by quick-change mutagenesis on pCA24N-ppnN (wt); source: E. coli BL21 (DE3) ΔppnN, purified (Ni-NTA, Superdex 200)) MITHISPLGSMDMLSQLEVDMLKRTASSDLYQLFRNCSLAVLNSGSLTDNSKELLSRFENFDINVLRRERGVKLELINPPEEAFVDGRIIRALQANLFAVLRDILFVYGQIHNTVRFPNLNLDNSVHITNLVFSILRNARALHVGEAPNMVVCWGGHSINENEYLYARRVGNQLGLRELNICTGCGPGAMEAPMAGAAVGHAQQRYKDSRFIGMTEPSIIAAEPPNPLVNELIIMPDIEKRLEAFVRIAHGIIIFPGGVGTAEELLYLLGILMNPANKDQVLPLILTGPKESADYFRVLDEFVVHTLGENARRHYRIIIDDAAEVARQMKKSMPLVKENRRDTGDAYSFNWSMRIAPDLQMPFEPSHENMANLKLYPDQPVEVLAADLRRAFSGIVAGNVKEVGIRAIEEFGPYKINGDKEIMRRMDDLLQGFVAQHRMKLPGSAYIPCYEICT | 4 | 
PpnN D49A (enzyme, Escherichia coli, UniProt P0ADR8 1-454, looked up, PpnN (previously YgdH), nucleosidase, Escherichia coli, with D49A; Made by quick-change mutagenesis on pCA24N-ppnN (wt); source: E. coli BL21 (DE3) ΔppnN, purified (Ni-NTA, Superdex 200)) MITHISPLGSMDMLSQLEVDMLKRTASSDLYQLFRNCSLAVLNSGSLTANSKELLSRFENFDINVLRRERGVKLELINPPEEAFVDGRIIRALQANLFAVLRDILFVYGQIHNTVRFPNLNLDNSVHITNLVFSILRNARALHVGEAPNMVVCWGGHSINENEYLYARRVGNQLGLRELNICTGCGPGAMEAPMKGAAVGHAQQRYKDSRFIGMTEPSIIAAEPPNPLVNELIIMPDIEKRLEAFVRIAHGIIIFPGGVGTAEELLYLLGILMNPANKDQVLPLILTGPKESADYFRVLDEFVVHTLGENARRHYRIIIDDAAEVARQMKKSMPLVKENRRDTGDAYSFNWSMRIAPDLQMPFEPSHENMANLKLYPDQPVEVLAADLRRAFSGIVAGNVKEVGIRAIEEFGPYKINGDKEIMRRMDDLLQGFVAQHRMKLPGSAYIPCYEICT | 4 | 
PpnN R241A (enzyme, Escherichia coli, UniProt P0ADR8 1-454, looked up, PpnN (previously YgdH), nucleosidase, Escherichia coli, with R241A; Made by quick-change mutagenesis on pCA24N-ppnN (wt); also called R241A variant; source: E. coli BL21 (DE3) ΔppnN, purified (Ni-NTA, Superdex 200)) MITHISPLGSMDMLSQLEVDMLKRTASSDLYQLFRNCSLAVLNSGSLTDNSKELLSRFENFDINVLRRERGVKLELINPPEEAFVDGRIIRALQANLFAVLRDILFVYGQIHNTVRFPNLNLDNSVHITNLVFSILRNARALHVGEAPNMVVCWGGHSINENEYLYARRVGNQLGLRELNICTGCGPGAMEAPMKGAAVGHAQQRYKDSRFIGMTEPSIIAAEPPNPLVNELIIMPDIEKALEAFVRIAHGIIIFPGGVGTAEELLYLLGILMNPANKDQVLPLILTGPKESADYFRVLDEFVVHTLGENARRHYRIIIDDAAEVARQMKKSMPLVKENRRDTGDAYSFNWSMRIAPDLQMPFEPSHENMANLKLYPDQPVEVLAADLRRAFSGIVAGNVKEVGIRAIEEFGPYKINGDKEIMRRMDDLLQGFVAQHRMKLPGSAYIPCYEICT | 4 | 
PpnN E264A (enzyme, Escherichia coli, UniProt P0ADR8 1-454, looked up, PpnN (previously YgdH), nucleosidase, Escherichia coli, with E264A; Made by quick-change mutagenesis on pCA24N-ppnN (wt); also called E264A 4:4 PpnN; E264A variant; source: E. coli BL21 (DE3) ΔppnN (ppnN::kan), purified (Ni-NTA, Superdex 200 for biochemistry; HisTrap, SourceQ, Superdex 200 Increase for crystallisation)) MITHISPLGSMDMLSQLEVDMLKRTASSDLYQLFRNCSLAVLNSGSLTDNSKELLSRFENFDINVLRRERGVKLELINPPEEAFVDGRIIRALQANLFAVLRDILFVYGQIHNTVRFPNLNLDNSVHITNLVFSILRNARALHVGEAPNMVVCWGGHSINENEYLYARRVGNQLGLRELNICTGCGPGAMEAPMKGAAVGHAQQRYKDSRFIGMTEPSIIAAEPPNPLVNELIIMPDIEKRLEAFVRIAHGIIIFPGGVGTAEALLYLLGILMNPANKDQVLPLILTGPKESADYFRVLDEFVVHTLGENARRHYRIIIDDAAEVARQMKKSMPLVKENRRDTGDAYSFNWSMRIAPDLQMPFEPSHENMANLKLYPDQPVEVLAADLRRAFSGIVAGNVKEVGIRAIEEFGPYKINGDKEIMRRMDDLLQGFVAQHRMKLPGSAYIPCYEICT |  | stoichiometry N [3]: 4
PpnN H157A (enzyme, Escherichia coli, UniProt P0ADR8 1-454, looked up, PpnN (previously YgdH), nucleosidase, Escherichia coli, with H157A; Made by quick-change mutagenesis on pCA24N-ppnN (wt); also called H157A variant; source: E. coli BL21 (DE3) ΔppnN, purified (Ni-NTA, Superdex 200)) MITHISPLGSMDMLSQLEVDMLKRTASSDLYQLFRNCSLAVLNSGSLTDNSKELLSRFENFDINVLRRERGVKLELINPPEEAFVDGRIIRALQANLFAVLRDILFVYGQIHNTVRFPNLNLDNSVHITNLVFSILRNARALHVGEAPNMVVCWGGASINENEYLYARRVGNQLGLRELNICTGCGPGAMEAPMKGAAVGHAQQRYKDSRFIGMTEPSIIAAEPPNPLVNELIIMPDIEKRLEAFVRIAHGIIIFPGGVGTAEELLYLLGILMNPANKDQVLPLILTGPKESADYFRVLDEFVVHTLGENARRHYRIIIDDAAEVARQMKKSMPLVKENRRDTGDAYSFNWSMRIAPDLQMPFEPSHENMANLKLYPDQPVEVLAADLRRAFSGIVAGNVKEVGIRAIEEFGPYKINGDKEIMRRMDDLLQGFVAQHRMKLPGSAYIPCYEICT | 4 | 
PpnN M190A (enzyme, Escherichia coli, UniProt P0ADR8 1-454, looked up, PpnN (previously YgdH), nucleosidase, Escherichia coli, with M190A; Made by quick-change mutagenesis on pCA24N-ppnN (wt); also called M190A variant; source: E. coli BL21 (DE3) ΔppnN, purified (Ni-NTA, Superdex 200)) MITHISPLGSMDMLSQLEVDMLKRTASSDLYQLFRNCSLAVLNSGSLTDNSKELLSRFENFDINVLRRERGVKLELINPPEEAFVDGRIIRALQANLFAVLRDILFVYGQIHNTVRFPNLNLDNSVHITNLVFSILRNARALHVGEAPNMVVCWGGHSINENEYLYARRVGNQLGLRELNICTGCGPGAAEAPMKGAAVGHAQQRYKDSRFIGMTEPSIIAAEPPNPLVNELIIMPDIEKRLEAFVRIAHGIIIFPGGVGTAEELLYLLGILMNPANKDQVLPLILTGPKESADYFRVLDEFVVHTLGENARRHYRIIIDDAAEVARQMKKSMPLVKENRRDTGDAYSFNWSMRIAPDLQMPFEPSHENMANLKLYPDQPVEVLAADLRRAFSGIVAGNVKEVGIRAIEEFGPYKINGDKEIMRRMDDLLQGFVAQHRMKLPGSAYIPCYEICT | 4 | 
PpnN T261A (enzyme, Escherichia coli, UniProt P0ADR8 1-454, looked up, PpnN (previously YgdH), nucleosidase, Escherichia coli, with T261A; Made by quick-change mutagenesis on pCA24N-ppnN (wt); also called T261A variant; source: E. coli BL21 (DE3) ΔppnN, purified (Ni-NTA, Superdex 200)) MITHISPLGSMDMLSQLEVDMLKRTASSDLYQLFRNCSLAVLNSGSLTDNSKELLSRFENFDINVLRRERGVKLELINPPEEAFVDGRIIRALQANLFAVLRDILFVYGQIHNTVRFPNLNLDNSVHITNLVFSILRNARALHVGEAPNMVVCWGGHSINENEYLYARRVGNQLGLRELNICTGCGPGAMEAPMKGAAVGHAQQRYKDSRFIGMTEPSIIAAEPPNPLVNELIIMPDIEKRLEAFVRIAHGIIIFPGGVGAAEELLYLLGILMNPANKDQVLPLILTGPKESADYFRVLDEFVVHTLGENARRHYRIIIDDAAEVARQMKKSMPLVKENRRDTGDAYSFNWSMRIAPDLQMPFEPSHENMANLKLYPDQPVEVLAADLRRAFSGIVAGNVKEVGIRAIEEFGPYKINGDKEIMRRMDDLLQGFVAQHRMKLPGSAYIPCYEICT | 4 | 
